Paper PMC12212125, “Constitutively active Arabidopsis cryptochrome two alleles identified using yeast selection and deep mutational scanning” (The Journal of Biological Chemistry, 2025)

B1: Arabidopsis thaliana cryptochrome 2 (CRY2, UniProt Q96524), residues 1-535 fused after the Gal4 DNA-binding domain (Gal4BD-CRY2(535)); mutagenized window 321-412, Q96524 (parent)
chain: MKMDKKTIVWFRRDLRIEDNPALAAAAHEGSVFPVFIWCPEEEGQFYPGRASRWWMKQSLAHLSQSLKALGSDLTLIKTHNTISAILDCIRVTGATKVVFNHLYDPVSLVRDHTVKEKLVERGISVQSYNGDLLYEPWEIYCEKGKPFTSFNSYWKKCLDMSIESVMLPPPWRLMPITAAAEAIWACSIEELGLENEAEKPSNALLTRAWSPGWSNADKLLNEFIEKQLIDYAKNSKKVVGNSTSLLSPYLHFGEISVRHVFQCARMKQIIWARDKNSEGEESADLFLRGIGLREYSRYICFNFPFTHEQSLLSHLRFFPWDADVDKFKAWRQGRTGYPLVDAGMRELWATGWMHNRIRVIVSSFAVKFLLLPWKWGMKYFWDTLLDADLECDILGWQYISGSIPDGHELDRLDNPALQGAKYDPEGEYIRQWLPELARLPTEWIHHPWDAPLTVLKASGVELGTNYAKPIVDIDTARELLAKAISRTREAQIMIGAAPDEIVADSFEALGANTIKEPGLCPSVSSNDQQVPSAV

Variants of: B1
Assay: yeast two-hybrid growth selection (MaV203; Gal4BD-CRY2(1-535) library x Gal4AD-CIB1; URA3 reporter on SC -Trp/-Leu/-Ura) in the dark, deep sequencing before and after selection, Enrich2 scoring; three independent screens (one at 48 h, two …)
Conditions: with CIB1 (CRYPTOCHROME-INTERACTING BASIC-HELIX-LOOP-HELIX 1), dark (no blue light), screens 1, 3 and 4, Svar > 0 = enriched under dark selection for CRY2-CIB1 two-hybrid growth (URA3 reporter), < 0 = depleted, relative to wild type (whose scores are 0). 'The Enrich2 software calculates, parent: 0, not an affinity, scale: Enrich2 score, numbering: uniprot, sequence starts at 1

Variant	enrichment
D387V	-0.792
D387Y	-0.867
A388D	-0.472
A388G	-1.33
A388P	-0.944
A388S	0.429
A388T	-0.454
A388V	-0.153
D389A	-0.573
D389E	-0.54
D389G	-1.23
D389N	-0.535
D389V	-0.759
D389Y	-0.572
L390F	1.66
L390M	-0.808
L390S	-1.09
L390V	0.548
L390W	2.28
E391A	-0.592
E391D	-0.531
E391G	-1.1
E391K	-0.425

Variant	enrichment
E391Q	-0.786
E391V	-0.645
C392F	-0.128
C392G	-0.321
C392R	-1.14
C392S	-0.465
C392W	-0.824
C392Y	-1.08
D393A	1.64
D393E	1.18
D393G	2.3
D393N	1.16
D393S	2.65
D393V	0.508
D393Y	-0.612
I394A	1.15
I394F	2.63
I394L	2.29
I394M	1.08
I394N	2.39
I394S	0.694
I394T	0.588
I394V	0.326

Variant	enrichment
I394Y	1.45
L395F	2.13
L395H	-0.769
L395P	-0.953
L395Q	2.71
L395R	-0.209
G396A	-1.05
G396D	0.65
G396R	2.19
G396S	-1.1
G396V	0.898
W397C	-0.144
W397G	-0.823
W397L	-0.429
W397R	-1.01
W397S	-1.08
Q398E	1.41
Q398H	1.96
Q398K	2.11
Q398L	1.96
Q398P	-0.641
Q398R	2.52
Q398W	1.99

Variant	enrichment
Y399C	1.43
Y399D	1.99
Y399F	1.58
Y399H	1.23
Y399I	2.5
Y399N	2.41
Y399S	2.82
I400F	1.95
I400L	-0.846
I400M	0.868
I400N	-0.48
I400S	-0.343
I400T	-0.933
I400V	-0.353
I400Y	1.86
S401A	-0.239
S401F	2.4
S401L	2.46
S401P	-0.107
S401T	2.02
S401Y	0.744
G402E	0.772
G402K	2.35

Variant	enrichment
G402R	1.69
G402V	-0.0472
G402W	-0.485
S403C	0.314
S403G	-0.408
S403I	2.54
S403N	0.435
S403R	2.21
I404A	1.16
I404F	2.25
I404N	1.51
I404S	1.61
I404T	-0.507
I404V	-0.182
I404Y	1.4
P405A	0.742
P405H	1.08
P405L	2
P405R	1.02
P405T	0.224
D406A	-0.00151
D406E	-0.152
D406G	-0.172

Variant	enrichment
D406H	-0.803
D406N	-0.7
D406V	2.12
D406Y	-0.496
G407A	-0.714
G407C	1.11
G407D	1.47
G407N	2.77
G407R	-0.0452
G407S	-0.771
G407V	1.39
H408L	1.61
H408P	1.5
H408R	2.75
H408Y	-0.432
E409A	-0.172
E409D	0.454
E409G	0.152
E409K	-0.366
E409T	0.84
E409V	0.507
L410R	1.71
D411E	1.55
